Where two headings read alike, the source gives them in different places. Blank lines part the entries; values can stand above or below the binder they belong to.
Key:
[1] = target: the molecule itself; assay: two-color TIRF microscopy
[2] = target: the molecule itself; assay: two-color TIRF microscopy; remark: listed apart in the source
[3] = target: T1, actin filaments (rabbit, UniProt P68135 1-377); assay: co-sedimentation
[4] = target: T1, actin filaments; assay: co-sedimentation; remark: listed apart in the source

B1: GFP-INF2-FFC (domain or fragment)
chain: not shown
- stoichiometry N [1]: 2.17 molecules
- stoichiometry N [2]: 2.06 molecules

- stoichiometry N [3]: 1 INF2 monomer:actin monomer
B2: INF2-FFC (domain or fragment)
chain: not shown

- fold lower affinity than INF2-FFC [4]: 5 fold
B3: INF2-FF (domain or fragment)
chain: not shown
